The text below walks through data of patent US20210145976A1 (ARO BIOTHERAPEUTICS, published 2021).

Assay [1] addresses T1, recombinant biotinylated CD71 extracellular domain (Sino Biologics) with an N-terminal 6His tag (human, UniProt P02786 89-760, biotinylated (sites not given)).
T1 construct: extracellular domain; also called hCD71; huCD71
The experiment in a line: screening ELISA. Background: ELISA stands for enzyme-linked immunosorbent assay.

The target in assay [2] is T1, recombinant biotinylated CD71 …. Description: screening ELISA, ratio.

T1 sequence (P02786 other isoform, or with tags, fused parts or gaps): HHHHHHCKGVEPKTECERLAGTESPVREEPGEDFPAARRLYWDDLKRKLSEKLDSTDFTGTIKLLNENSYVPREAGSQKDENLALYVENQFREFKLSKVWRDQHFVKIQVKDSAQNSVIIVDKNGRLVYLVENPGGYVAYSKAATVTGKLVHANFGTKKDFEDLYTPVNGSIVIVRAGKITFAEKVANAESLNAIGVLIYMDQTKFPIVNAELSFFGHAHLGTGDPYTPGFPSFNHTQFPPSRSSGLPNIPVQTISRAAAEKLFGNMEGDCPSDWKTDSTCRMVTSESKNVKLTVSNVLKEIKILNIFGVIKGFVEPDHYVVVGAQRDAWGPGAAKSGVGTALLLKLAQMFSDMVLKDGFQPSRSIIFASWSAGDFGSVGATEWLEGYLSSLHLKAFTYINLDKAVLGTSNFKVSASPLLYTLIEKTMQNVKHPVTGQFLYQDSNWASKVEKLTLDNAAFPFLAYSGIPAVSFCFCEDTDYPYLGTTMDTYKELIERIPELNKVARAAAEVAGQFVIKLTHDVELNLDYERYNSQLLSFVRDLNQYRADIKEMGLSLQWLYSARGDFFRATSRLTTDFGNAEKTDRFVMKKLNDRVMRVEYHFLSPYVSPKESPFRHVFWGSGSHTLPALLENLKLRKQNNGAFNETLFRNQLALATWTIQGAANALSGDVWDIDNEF

B1: SEQ ID NO 165 (designed binder)
chain: MLPARKNLVVSRVTEDSARLSWTAPDAAFDSFFIPYAEPSPTGEAIVLTVPGSERSYDLTGLKPGTEYSVLIHGVKGGHLSDPLSAISTT
notes: FN3 domain
Take B1: the hCD71 in assay [1] is 2.64e+06. In assay [2], the “hCD71:HSA” value turned out to be 41.

B2: SEQ ID NO 215 (designed binder)
chain: MLPAPKNLVVSRVTEDSARLSWTAPDAAFDSFLIPYAETSPTGEAIVLTVPGSERSYDLTGLKPGTEYSVLIHGVKGGYPSSPLSAIFTT
notes: FN3 domain
As for B2, the hCD71 in assay [1] stood at 2.13e+06. The “hCD71:HSA” value in assay [2] came out at 1210.

B3: SEQ ID NO 207 (designed binder)
chain: MLPAPKNLVVSRVTEDSARLSWTAPDAAFDSFFIGYLEPQPPGEAIVLTVPGSERSYDLTGLKPGTEYNVTIQGVKGGTPSEPLSAISTT
notes: FN3 domain
On to B3, for which the hCD71 in assay [1] is 1.6e+06. The “hCD71:HSA” value in assay [2] turned out to be 62.

B4: SEQ ID NO 183 (designed binder)
chain: MLPAPKNLVVSRVTEDSARLSWTAPDAAFDSFLIPYAETSPSGEAIVLTVPGSERSYDLTGLKPGTEYSVLIHGVKGGRPSNPLVAAFTT
notes: FN3 domain
With B4, the hCD71 in assay [1] was determined as 1.72e+06. Further, the “hCD71:HSA” value in assay [2] is 161.

B5: SEQ ID NO 175 (designed binder)
chain: MLPAPKNLVVSRVTEDSARLSWTAPDAAFDSFFIGYLEPQPPGEAIVLTVPGSERSYDLTGLKPGTEYSVVIQGVKGGFPSDPLSAIFTT
notes: FN3 domain
For B5, the hCD71 in assay [1] stood at 3.55e+06. Also, the “hCD71:HSA” value in assay [2] was 2220.

B6: SEQ ID NO 166 (designed binder)
chain: MLPAPKNLVVSRVTEDSARLSWTAPDAAFDSFTILYNEIQNVGEAIVLTVPGSERSYDLTGLKPGTEYDVWIEGVKGGELSWPLSAIFTT
notes: FN3 domain
Regarding B6, the hCD71 in assay [1] is 2.42e+06. In addition, the “hCD71:HSA” value in assay [2] was 480.

B7: SEQ ID NO 181 (designed binder)
chain: MLPAPKNLVVSHVTEDSARLSWTAPDAAFDSFPIAYAEPRPDGEAIVLTVPGSERSYDLTGLKPGTEYSVLIHGVKGGLLSSPLSAIFTT
notes: FN3 domain
In the case of B7, in assay [1], the hCD71 came to 2.95e+06. For the same molecule, the “hCD71:HSA” value in assay [2] was 491.

B8: SEQ ID NO 176 (designed binder)
chain: MLPAPKNLVVSRVTEDSARLSWTAPDAAFDSFPIAYAEPRPDGEAIVLTVPGSERSYDLTGLKPGTEYSVGIHGVKGGHDSSPLSAIFTT
notes: FN3 domain
Turning to B8, in assay [1], the hCD71 turned out to be 1.34e+06. Besides, in assay [2], the “hCD71:HSA” value turned out to be 129.

B9: SEQ ID NO 182 (designed binder)
chain: MLPAPKNLVVSRVTEDSARLSWTAPDAAFDSFFIGYLEPYPPGEAIVLTVPGSERSYDLTGLKPGTEYVVSIQGVKGGTPSQPLSAIFTT
notes: FN3 domain
As for B9, the hCD71 in assay [1] was 3.12e+06. For the same molecule, in assay [2], the “hCD71:HSA” value stood at 1060.

B10: SEQ ID NO 180 (designed binder)
chain: MLPAPKNLVVSRVTEDSARLSWTAPDAAFDSFEISYYEMRGYGEAIVLTVPGSERSYDLTGLKPGTEYSVLIHGVEGGDYSSPLSAISTT
notes: FN3 domain
For B10, the hCD71 in assay [1] worked out at 1.68e+06. Further, the “hCD71:HSA” value in assay [2] worked out at 50.

B11: SEQ ID NO 195 (designed binder)
chain: MLPAPKNLVVSRVTEDSARLSWTAPDAAFDSFPIEYDEIPFWGEAIVLTVPGSERSYDLTGLKPGTEYRVWIHGVKGGNSSWPLSAIFTT
notes: FN3 domain
As for B11, the hCD71 in assay [1] worked out at 2.53e+06. Besides, in assay [2], the “hCD71:HSA” value came out at 28.

B12: SEQ ID NO 236 (designed binder)
chain: MLPAPKNLVVSRVTEDSARLSWTAPDAAFDSFWIEYYEELGSGEAIVLTVPGSERSYDLTGLKPGTEYRVYIYGVKGGYPSSPLSAIFTT
notes: FN3 domain
Consider B12, for which the hCD71 in assay [1] came out at 3.44e+06. In addition, the “hCD71:HSA” value in assay [2] came to 2300.

B13: SEQ ID NO 202 (designed binder)
chain: MLPAPKNLVVSRVTEDSARLSWTAPDAAFDSFYIDYLELTYSGEAIVLTVPGSERSYDLTGLKPGTEYYVYIYGVKGGYPSSPLSAIFTT
notes: FN3 domain
Take B13: in assay [1], the hCD71 was found to be 4.5e+06. The “hCD71:HSA” value in assay [2] came out at 1610.

B14: SEQ ID NO 223 (designed binder)
chain: MLPAPKNLVVSRVTEDSARLSWTAPDAAFDSFTIWYAEALGDGEAIVLTVPGSERSYDLTGLKPGTEYFVDIPGVKGGTRSSPLSAISTT
notes: FN3 domain
As for B14, the hCD71 in assay [1] was found to be 1.67e+06. Besides, the “hCD71:HSA” value in assay [2] amounted to 32.

B15: SEQ ID NO 228 (designed binder)
chain: MLPAPKNLVVSRVTEDSARLSWTAPDAAFDSFEIYYVEWSEAGEAIVLTVPGSERSYDLTGLKPGTEYRVEIRGVKGGSWSSPLSAIFTT
notes: FN3 domain
For B15, in assay [1], the hCD71 came out at 2.54e+06. The “hCD71:HSA” value in assay [2] came to 1060.

B16: SEQ ID NO 187 (designed binder)
chain: MLPAPKNLVVSRVTEDSARLSWTAPDAAFDSFVIEYFEFVGYGEAIVLTVPGSERSYDLTGLKPGTEYSVGIYGVKGGKLSPPLSAIFTT
notes: FN3 domain
On to B16, for which the hCD71 in assay [1] was 3.06e+06. The “hCD71:HSA” value in assay [2] came to 422.

B17: SEQ ID NO 177 (designed binder)
chain: MLPAPKNLVVSRVTEDSARLSWTAPDAAFDSFFIGYLEPQPPGEAIVLTVPGSERSYDLTGLKPGTEYNVTIQGVKGGRASGPLSAIFTT
notes: FN3 domain
For B17, in assay [1], the hCD71 amounted to 2.61e+06. The “hCD71:HSA” value in assay [2] was found to be 1060.

B18: SEQ ID NO 211 (designed binder)
chain: MLPAPKNLVVSRVTEDSARLSWTAPDAAFDSFWINYYEAQPDGEAIVLTVPGSERSYDLTGLKPGTEYDVEIAGVKGGTASLPLSAIFTT
notes: FN3 domain
Turning to B18, in assay [1], the hCD71 was 1e+06. For the same molecule, the “hCD71:HSA” value in assay [2] is 334.

B19: SEQ ID NO 193 (designed binder)
chain: MLPAPKNLVVSRVTEDSARLSWTAPDAAFDSFTIWYAEAVGNGEAIVLTVPGSERSYDLTGLKPGTEYWVDIWGVKGGEFSSPLSAIFTT
notes: FN3 domain
On to B19, for which, in assay [1], the hCD71 was determined as 3.87e+06. The “hCD71:HSA” value in assay [2] amounted to 1550.

B20: SEQ ID NO 205 (designed binder)
chain: MLPAPKNLVVSRVTEDSARLSWTAPDAAFDSFDIDYDEPAWNGEAIVLTVPGSERSYDLTGLKPGTEYRVFIYGVKGGNTSWPLSAIFTT
notes: FN3 domain
For the molecule B20, in assay [1], the hCD71 was 434000. Further, in assay [2], the “hCD71:HSA” value amounted to 130.

B21: SEQ ID NO 185 (designed binder)
chain: MLPAPKNLVVSRVTEDSARLSWTAPDAAFDSFEIDYDELAIYGEAIVLTVPGSERSYDLTGLKPGTEYGVMIIGVKGGLPSDPLSAIFTT
notes: FN3 domain
As to B21, the hCD71 in assay [1] was 1.81e+06. For the same molecule, the “hCD71:HSA” value in assay [2] was determined as 182.

B22: SEQ ID NO 167 (designed binder)
chain: MLPAPKNLVVSRVTEDSARLSWTAPDAAFDSFFIGYLEPQPPGEAIVLTVPGSERSYDLTGLKPGTEYNVTIQGVKGGTPSEPLSAIFTT
notes: FN3 domain
Consider B22, for which the hCD71 in assay [1] is 2.62e+06. Besides, the “hCD71:HSA” value in assay [2] was found to be 727.

B23: SEQ ID NO 200 (designed binder)
chain: MLPAPKNLVVSRVTEDSARLSWTAPDAAFDSFYIEYYEWMHTGEAIVLTVPGSERSYDLTGLKPGTEYSVYIYGVKGGYPSSPLSAIFTT
notes: FN3 domain
Consider B23, for which the hCD71 in assay [1] worked out at 3.63e+06. The “hCD71:HSA” value in assay [2] was 1730.

B24: SEQ ID NO 178 (designed binder)
chain: MLPAPKNLVVSRVTEDSARLSWTAPDAAFDSFDIAYAEPIPRGEAIVLTVPGSERSYDLTGLKPGTEYSVLIHGVKGGRRSVPLSAIFTT
notes: FN3 domain
B24: the hCD71 in assay [1] worked out at 1.45e+06. For the same molecule, the “hCD71:HSA” value in assay [2] was determined as 644.

B25: SEQ ID NO 210 (designed binder)
chain: MLPAPKNLVVSRVTEDSARLSWTAPDAAFDSFSIVYGERFVNGEAIVLTVPGSERSYDLTGLKPGTEYHVYIDGVKGGDLSWPLSAIFTT
notes: FN3 domain
For B25, the hCD71 in assay [1] was determined as 1.16e+06. Further, in assay [2], the “hCD71:HSA” value amounted to 514.

B26: SEQ ID NO 169 (designed binder)
chain: MLPAPKNLVVSRVTEDSARLSWTAPDAAFDSFFIGYLEPQPPGEAIVLTVPGSERSYDLTGLKPGTEYNVTIQGVKGGFPSVPLSAIFTT
notes: FN3 domain
Regarding B26, the hCD71 in assay [1] worked out at 2.85e+06. In addition, the “hCD71:HSA” value in assay [2] was 1060.

B27: SEQ ID NO 179 (designed binder)
chain: MLPAPKNLVVSRVTEDSARLSWTAPDAAFDSFYIAYAEPRPDGEAIVLTVPGSERSYDLTGLKPGTEYPVPIPGVKGGPGSSPLSAIFTT
notes: FN3 domain
In the case of B27, the hCD71 in assay [1] turned out to be 2.68e+06. Besides, the “hCD71:HSA” value in assay [2] is 36.

B28: SEQ ID NO 170 (designed binder)
chain: MLPAPKNLVVSRVTEDSARLSWTAPDAAFDSFFIGYPEYPATGEAIVLTVPGSERSYDLTGLKPGTEYFVDINGVKGGSLSYPLSAIFTT
notes: FN3 domain
As for B28, the hCD71 in assay [1] was 982000. Further, the “hCD71:HSA” value in assay [2] was 58.

B29: SEQ ID NO 188 (designed binder)
chain: MLPAPKNLVVSRVTEDSARLSWTAPDAAFDSFLIPYAETSPSGEAIVLTVPGSERSYDLTGLKPGTEYSVLIHGVKGGKLSLPLSAIFTT
notes: FN3 domain
On to B29, for which, in assay [1], the hCD71 amounted to 2.67e+06. Also, in assay [2], the “hCD71:HSA” value turned out to be 797.

B30: SEQ ID NO 219 (designed binder)
chain: MLPAPKNLVVSRVTEDSARLSWTAPDAAFDSFHIDYLELTYAGEAIVLTVPGSERSYDLTGLKPGTEYYVTIYGVKGGYPSSPLSAIFTT
notes: FN3 domain
As for B30, the hCD71 in assay [1] was determined as 3.31e+06. In assay [2], the “hCD71:HSA” value was found to be 1270.

B31: SEQ ID NO 216 (designed binder)
chain: MLPAPKNLVVSRVTEDSARLSWTAPDAAFDSFPIAYAEPTPSGEAIVLTVPGSERSYDLTGLKPGTEYSVLIHGVKGGGLSLPLSAIFTT
notes: FN3 domain
For B31, the hCD71 in assay [1] is 2.19e+06. Further, the “hCD71:HSA” value in assay [2] is 101.

B32: SEQ ID NO 192 (designed binder)
chain: MLPAPKNLVVSRVTEDSARLSWTALDAAFDSFFIGYLEPQPPGEAIVLTVPGSERSYDLTGLKPGTEYNVTIQGVKGGFPSMPLSAIFTT
notes: FN3 domain
With B32, the hCD71 in assay [1] was 2.67e+06. Besides, the “hCD71:HSA” value in assay [2] was found to be 650.

B33: SEQ ID NO 198 (designed binder)
chain: MLPAPKNLVVSRVTEDSARLSWTAPDAAFDSFLIAYNEDRKFGEAIVLTVPGSERSYDLTGLKPGTEYDVWIEGVKGGSLSFPLSAIFTT
notes: FN3 domain
As for B33, the hCD71 in assay [1] turned out to be 3.44e+06. Also, the “hCD71:HSA” value in assay [2] is 1130.
